Source: patent publication US20220411483A1 (Chugai, published 2022)
Changes are numbered by the printed parent chain.

B1: IL6R-P690/IL6R-L (antibody, human IgG1, kappa)
heavy: QVQLQESGPGLVKPSETLSLTCAVSGHSISHDHAWSWVRQPPGEGLEWIGFISYSGITNYNPSLQGRVTISRDNSKNTLYLQMNSLRAEDTAVYYCARSLARTTAMDYWGEGTLVTVSSASTKGPSVFPLAPSSKSTSGGTAALGCLVKDYFPEPVTVSWNSGALTSGVHTFPAVLQSSGLYSLSSVVTVPSSSLGTQTYICNVNHKPSNTKVDKKVEPKSCDKTHTCPPCPAPELLGQDSVMLFPPKPKDTLMISRTPEVTCVVVDVSHEDPEVKFNWYVDGVEVHNAKTKPREEQENSTYRVVSVLTVLHQDWLNGKEYKCKVSNKALPHPIEKTISKAKGQPREPQVYTLPPSRDELTKNQVSLTCLVKGFYPSDIAVEWESNGQPENNYKTTPPVLDSDGSFFLYSKLTVDKSRWQQGNVFSCSVMHEALHNHYTQKSLSLSP
light: not shown
B2: IL6R-P691/IL6R-L (antibody, human IgG1, kappa)
heavy: B1 heavy with L237F, H332A
light: not shown
B3: IL6R-P727/IL6R-L (antibody, human IgG1, kappa)
heavy: B1 heavy with H270P
light: not shown
B4: IL6R-P729/IL6R-L (antibody, human IgG1, kappa)
heavy: B1 heavy with L237F, H270P, H332A
light: not shown
B5: IL6R-P733/IL6R-L (antibody, human IgG1, kappa)
heavy: B1 heavy with L237F, H270P, S326H, H332A
light: not shown
B6: IL6R-P734/IL6R-L (antibody, human IgG1, kappa)
heavy: B1 heavy with L237F, S326H
light: not shown
B7: IL6R-P726/IL6R-L (antibody, human IgG1, kappa)
heavy: B1 heavy with S326H
light: not shown
B8: IL6R-P731/IL6R-L (antibody, human IgG1, kappa)
heavy: B1 heavy with H270P, S326H, H332A
light: not shown
B9: IL6R-P737/IL6R-L (antibody, human IgG1, kappa)
heavy: B1 heavy with H270P, S326H
light: not shown
B10: IL6R-P692/IL6R-L (antibody, human IgG1, kappa)
heavy: B1 heavy with L237F
light: not shown
B11: IL6R-P732/IL6R-L (antibody, human IgG1, kappa)
heavy: B1 heavy with L237F, Q239G, H270P, S326H, H332A
light: not shown
B12: IL6R-P728/IL6R-L (antibody, human IgG1, kappa)
heavy: B1 heavy with L237F, S326H, H332A
light: not shown
B13: IL6R-P735/IL6R-L (antibody, human IgG1, kappa)
heavy: B1 heavy with L237F, H270P
light: not shown
B14: IL6R-P693/IL6R-L (antibody, human IgG1, kappa)
heavy: B1 heavy with Q239G, M243F, S300A, H332A
light: not shown
B15: IL6R-BP554/IL6R-L (antibody, human IgG1, kappa, name in EU numbering)
heavy: B1 heavy with Q239D, M243F, V266I, S269A, H270E, P273G, E274D, E298Y, H332R, K441E
light: not shown
notes: human IgG1

The binders below were run against T1, FcγRIa extracellular domain, His tag (human, UniProt P12314 16-292) (assay: SPR, KD ratio).
T1 construct: whole entry named; also called FcgRIa
T1 sequence (P12314 16-292): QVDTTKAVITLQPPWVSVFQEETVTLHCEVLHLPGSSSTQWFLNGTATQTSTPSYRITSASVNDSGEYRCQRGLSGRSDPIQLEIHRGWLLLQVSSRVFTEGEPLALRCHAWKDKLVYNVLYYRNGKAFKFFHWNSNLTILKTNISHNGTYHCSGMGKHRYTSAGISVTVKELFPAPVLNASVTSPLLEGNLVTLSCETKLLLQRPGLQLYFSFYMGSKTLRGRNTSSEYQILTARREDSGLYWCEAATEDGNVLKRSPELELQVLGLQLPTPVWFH

Row | Binder | Relative FcgRIa-binding Activity
1 | B1 | 0.0011 fold of IL6R-G1d/IL6R-L
2 | B2 | 0.0004 fold of IL6R-G1d/IL6R-L
3 | B3 | 0.0014 fold of IL6R-G1d/IL6R-L
4 | B4 | 0.0005 fold of IL6R-G1d/IL6R-L
5 | B5 | 0.0001 fold of IL6R-G1d/IL6R-L
6 | B6 | 0.0015 fold of IL6R-G1d/IL6R-L
7 | B7 | 0.0017 fold of IL6R-G1d/IL6R-L
8 | B8 | 0.0049 fold of IL6R-G1d/IL6R-L
9 | B9 | 0.002 fold of IL6R-G1d/IL6R-L
10 | B10 | 0.0006 fold of IL6R-G1d/IL6R-L
11 | B11 | 0.0005 fold of IL6R-G1d/IL6R-L
12 | B12 | 0.0006 fold of IL6R-G1d/IL6R-L
13 | B13 | 0.0013 fold of IL6R-G1d/IL6R-L
14 | B14 | 0.0423 fold of IL6R-G1d/IL6R-L

The binders below were run against T2, FcγRIIa R type extracellular domain, His tag (human, UniProt P12318 34-217) (assay: SPR, KD ratio).
T2 construct: extracellular domain; also called FcgRIIaR
T2 sequence (looked up): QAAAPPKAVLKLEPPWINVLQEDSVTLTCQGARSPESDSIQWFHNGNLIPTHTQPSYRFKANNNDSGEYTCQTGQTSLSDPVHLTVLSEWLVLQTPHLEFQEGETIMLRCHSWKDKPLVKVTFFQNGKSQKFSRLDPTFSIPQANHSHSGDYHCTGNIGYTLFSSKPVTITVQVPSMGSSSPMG

Row | Binder | Relative FcgRIIaR-binding Activity
15 | B1 | 0.017 fold of IL6R-G1d/IL6R-L
16 | B2 | 0.017 fold of IL6R-G1d/IL6R-L
17 | B3 | 0.012 fold of IL6R-G1d/IL6R-L
18 | B4 | 0.015 fold of IL6R-G1d/IL6R-L
19 | B5 | 0.009 fold of IL6R-G1d/IL6R-L
20 | B6 | 0.018 fold of IL6R-G1d/IL6R-L
21 | B7 | 0.019 fold of IL6R-G1d/IL6R-L
22 | B8 | 0.012 fold of IL6R-G1d/IL6R-L
23 | B9 | 0.011 fold of IL6R-G1d/IL6R-L
24 | B10 | 0.022 fold of IL6R-G1d/IL6R-L
25 | B11 | 0.017 fold of IL6R-G1d/IL6R-L
26 | B12 | 0.017 fold of IL6R-G1d/IL6R-L
27 | B13 | 0.021 fold of IL6R-G1d/IL6R-L
28 | B14 | 0.018 fold of IL6R-G1d/IL6R-L

These binders were tested against T3, FcγRIIa H type extracellular domain, His tag (human, UniProt P12318 34-217) (assay: SPR, KD ratio).
T3 construct: extracellular domain; also called FcgRIIaH
T3 sequence (looked up): T2 sequence (looked up) with R134H

Row | Binder | Relative FcgRIIaH-binding Activity
29 | B1 | 0.007 fold of IL6R-G1d/IL6R-L
30 | B2 | 0.007 fold of IL6R-G1d/IL6R-L
31 | B3 | 0.007 fold of IL6R-G1d/IL6R-L
32 | B4 | 0.005 fold of IL6R-G1d/IL6R-L
33 | B5 | 0.006 fold of IL6R-G1d/IL6R-L
34 | B6 | 0.011 fold of IL6R-G1d/IL6R-L
35 | B7 | 0.016 fold of IL6R-G1d/IL6R-L
36 | B8 | 0.007 fold of IL6R-G1d/IL6R-L
37 | B9 | 0.006 fold of IL6R-G1d/IL6R-L
38 | B10 | 0.008 fold of IL6R-G1d/IL6R-L
39 | B11 | 0.01 fold of IL6R-G1d/IL6R-L
40 | B12 | 0.012 fold of IL6R-G1d/IL6R-L
41 | B13 | 0.007 fold of IL6R-G1d/IL6R-L
42 | B14 | 0.006 fold of IL6R-G1d/IL6R-L

What follows are binders tested against T4, FcγRIIb extracellular domain, His tag (human, UniProt P31994 43-217) (assay: SPR, KD ratio).
T4 construct: extracellular domain; also called FcgRIIb
T4 sequence (looked up): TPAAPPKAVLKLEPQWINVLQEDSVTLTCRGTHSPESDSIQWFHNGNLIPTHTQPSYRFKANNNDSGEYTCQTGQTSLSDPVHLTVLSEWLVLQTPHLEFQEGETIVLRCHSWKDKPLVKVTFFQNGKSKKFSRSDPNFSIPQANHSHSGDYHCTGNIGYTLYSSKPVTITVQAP

Row | Binder | Relative FcgRIIb-binding Activity
43 | B1 | 1.28 fold of IL6R-G1d/IL6R-L
44 | B2 | 1.19 fold of IL6R-G1d/IL6R-L
45 | B3 | 1.06 fold of IL6R-G1d/IL6R-L
46 | B4 | 1.17 fold of IL6R-G1d/IL6R-L
47 | B5 | 1.09 fold of IL6R-G1d/IL6R-L
48 | B6 | 2.07 fold of IL6R-G1d/IL6R-L
49 | B7 | 1.25 fold of IL6R-G1d/IL6R-L
50 | B8 | 0.499 fold of IL6R-G1d/IL6R-L
51 | B9 | 0.802 fold of IL6R-G1d/IL6R-L
52 | B10 | 1.89 fold of IL6R-G1d/IL6R-L
53 | B11 | 1.75 fold of IL6R-G1d/IL6R-L
54 | B12 | 1.31 fold of IL6R-G1d/IL6R-L
55 | B13 | 2.26 fold of IL6R-G1d/IL6R-L
56 | B14 | 0.918 fold of IL6R-G1d/IL6R-L

Each binder was assayed against T5, FcγRIIIa V type extracellular domain, His tag (human, UniProt P08637 17-208) (assay: SPR, KD ratio).
T5 construct: extracellular domain; also called FcgRIIIaV
T5 sequence (P08637 17-208 F176V): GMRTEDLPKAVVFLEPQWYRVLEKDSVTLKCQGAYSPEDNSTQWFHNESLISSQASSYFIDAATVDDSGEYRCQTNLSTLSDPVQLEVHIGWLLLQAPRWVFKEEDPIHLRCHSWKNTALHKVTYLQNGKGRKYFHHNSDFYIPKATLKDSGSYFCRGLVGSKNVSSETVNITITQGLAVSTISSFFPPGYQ

Row | Binder | Relative FcgRIIIaV-binding Activity
57 | B1 | 0.005 fold of IL6R-G1d/IL6R-L
58 | B2 | 0.007 fold of IL6R-G1d/IL6R-L
59 | B3 | 0.005 fold of IL6R-G1d/IL6R-L
60 | B4 | 0.006 fold of IL6R-G1d/IL6R-L
61 | B5 | 0.004 fold of IL6R-G1d/IL6R-L
62 | B6 | 0.003 fold of IL6R-G1d/IL6R-L
63 | B7 | 0.009 fold of IL6R-G1d/IL6R-L
64 | B8 | 0.006 fold of IL6R-G1d/IL6R-L
65 | B9 | 0.005 fold of IL6R-G1d/IL6R-L
66 | B10 | 0.006 fold of IL6R-G1d/IL6R-L
67 | B11 | 0.004 fold of IL6R-G1d/IL6R-L
68 | B12 | 0.007 fold of IL6R-G1d/IL6R-L
69 | B13 | 0.005 fold of IL6R-G1d/IL6R-L
70 | B14 | 0.008 fold of IL6R-G1d/IL6R-L

Each binder was assayed against T6, FcγRIa extracellular domain with C-terminal His tag (human, UniProt P12314 16-292) (assay: SPR, antibody captured, FcgR analyte).
T6 construct: also called FcgRIa; CD64; not shown: His tag at the C terminus
T6 sequence (P12314 16-292): as the sequence (P12314 16-292) above

Row | Binder | Kd [nM]
71 | B15 | 8

Each binder was assayed against T7, FcγRIIa H type extracellular domain with C-terminal His tag (human, UniProt P12318 34-217) (assay: SPR, antibody captured, FcgR analyte).
T7 construct: extracellular domain; also called FcgRIIaH; not shown: His tag at the C terminus
T7 sequence (looked up): T2 sequence (looked up) with R134H

Row | Binder | Kd [nM]
72 | B15 | 2300

What follows are binders tested against T2, FcγRIIa R type extracellular domain, … (assay: SPR, bound amount per captured antibody).

Row | Binder | Relative FcgRIIaR-binding Activity
73 | B1 | 10.5 % of IL6R-G1d/IL6R-L
74 | B2 | 10.7 % of IL6R-G1d/IL6R-L
75 | B3 | 8.3 % of IL6R-G1d/IL6R-L
76 | B4 | 10 % of IL6R-G1d/IL6R-L
77 | B5 | 6.3 % of IL6R-G1d/IL6R-L
78 | B6 | 12.5 % of IL6R-G1d/IL6R-L
79 | B7 | 12 % of IL6R-G1d/IL6R-L
80 | B8 | 8.1 % of IL6R-G1d/IL6R-L
81 | B9 | 7.2 % of IL6R-G1d/IL6R-L
82 | B10 | 13.7 % of IL6R-G1d/IL6R-L
83 | B11 | 11.9 % of IL6R-G1d/IL6R-L
84 | B12 | 11 % of IL6R-G1d/IL6R-L
85 | B13 | 14.3 % of IL6R-G1d/IL6R-L
86 | B14 | 11.4 % of IL6R-G1d/IL6R-L

The binders below were run against T4, FcγRIIb extracellular domain, His tag (assay: SPR, bound amount per captured antibody).

Row | Binder | Relative FcgRIIb-binding Activity
87 | B1 | 102 % of IL6R-G1d/IL6R-L
88 | B2 | 104 % of IL6R-G1d/IL6R-L
89 | B3 | 108 % of IL6R-G1d/IL6R-L
90 | B4 | 127 % of IL6R-G1d/IL6R-L
91 | B5 | 104 % of IL6R-G1d/IL6R-L
92 | B6 | 169 % of IL6R-G1d/IL6R-L
93 | B7 | 123 % of IL6R-G1d/IL6R-L
94 | B8 | 85.8 % of IL6R-G1d/IL6R-L
95 | B9 | 99.5 % of IL6R-G1d/IL6R-L
96 | B10 | 127 % of IL6R-G1d/IL6R-L
97 | B11 | 165 % of IL6R-G1d/IL6R-L
98 | B12 | 126 % of IL6R-G1d/IL6R-L
99 | B13 | 173 % of IL6R-G1d/IL6R-L
100 | B14 | 87.9 % of IL6R-G1d/IL6R-L
